Test results: article PMC11952106

Experiments:
[1] = molecular target: act-EaCDCL^S (proteolytically activated short CDC-like protein of Elizabethkingia anophelis) (Elizabethkingia anophelis); assay: cryo-EM structure; membrane-inserted pore on POPC liposomes; act-EaCDCL^L (3.95 uM) then act-EaCDCL^S (7.9 uM) at 37°C; focused refinement, C30 symmetry, 2.87 Å
[2] = molecular target: act-EaCDCL^S (proteolytically activated short CDC-like protein of Elizabethkingia anophelis) (Elizabethkingia anophelis); assay: cryo-EM structure; prepore-like oligomer stacked on the inserted pore; act-EaCDCL^L (3.95 uM) then act-EaCDCL^S (7.9 uM) on POPC liposomes at 37°C; focused refinement, C30 symmetry, 3.13 Å

Substance: act-EaCDCL^S (proteolytically activated short CDC-like protein of Elizabethkingia anophelis) (domain or fragment)
- stoichiometry N [1]: 30 subunits
- stoichiometry N [2]: 30 subunits
